Source: patent US20150374794A1 (Novo Nordisk, published 2015)
Numbered stars: 1 amine (or outer) side, 2 acyl side, 3 side chain; on linkers, the order of the positions; unused ones are H or OH. Square brackets hold non-standard residues; d marks the D form. Side chains are listed from the residue outwards. Ends that are not written are not given here. * marks the point of attachment. C18 diacid = O=C(O)CCCCCCCCCCCCCCCCC(=O)*; γGlu = O=C(O)[C@H](CCC(=O)[*:2])N[*:1]; Ac4c = NC1(C(=O)O)CCC1; AEEA = NCCOCCOCC(=O)O; Aib = CC(C)(N)C(=O)O

Key:
human glucagon receptor [1] = target: T1, human glucagon receptor (human, UniProt P47871 26-477); assay: displacement of 125I-glucagon, membranes with human glucagon receptor, SPA
T1 construct: whole, on cells; the potency assay used whole cells (clone pLJ6'-4-25); also called GlucR; hGCGR
Method: (§1) The receptor binding of each compound to the human glucagon receptor was measured in a displacement binding assay. […] Each derivative was added in a series of concentrations to isolated membranes containing the human glucagon receptor and displacement of the labelled ligand is monitored. The receptor binding was reported as the concentration at which half of the labelled ligand is displaced from the receptor, the IC₅₀ value.

human glucagon receptor [2] = target: T1, human glucagon receptor; assay: cell-based or functional assay
human GLP-1 receptor [3] = target: T2, human GLP-1 receptor (human, UniProt P43220 24-463); assay: cell-based or functional assay
human GLP-1 receptor [4] = target: T2, human GLP-1 receptor; assay: displacement of 125I-GLP-1(7-36)NH2, membranes with human GLP-1R, SPA
Method: as §1, with “human GLP-1” for “human glucagon”, “ligand was” for “ligand is”

T1 sequence (P47871 26-477): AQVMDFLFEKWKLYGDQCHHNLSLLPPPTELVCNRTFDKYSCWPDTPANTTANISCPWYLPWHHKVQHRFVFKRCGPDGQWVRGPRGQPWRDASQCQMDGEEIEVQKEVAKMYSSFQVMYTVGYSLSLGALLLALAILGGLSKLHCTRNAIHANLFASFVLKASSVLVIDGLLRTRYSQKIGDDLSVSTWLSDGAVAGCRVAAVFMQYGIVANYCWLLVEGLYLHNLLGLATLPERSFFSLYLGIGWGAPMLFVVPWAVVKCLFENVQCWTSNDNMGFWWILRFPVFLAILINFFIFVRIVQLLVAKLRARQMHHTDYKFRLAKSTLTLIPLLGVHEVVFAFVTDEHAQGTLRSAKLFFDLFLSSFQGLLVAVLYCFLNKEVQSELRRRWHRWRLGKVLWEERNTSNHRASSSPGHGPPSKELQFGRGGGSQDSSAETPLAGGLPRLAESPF

| Binder | IC50 (human glucagon receptor [1]) [pM] | EC50 GlucR, CRE luciferase reporter gene assay in BHK cells (human glucagon receptor [2]) [pM] | EC50 GLP-1R, CRE luciferase reporter gene assay in BHK cells (human GLP-1 receptor [3]) [pM] | IC50 (human GLP-1 receptor [4]) [pM] |
| --- | --- | --- | --- | --- |
| H[Aib]QGTFTSDLSKYLESKAAREFVQWLLK([γGlu-γGlu-AEEA-AEEA-γGlu-C18 diacid])T-NH2 (N-terminus assumed; SMILES CC(C)C[C@H](NC(=O)[C@H](Cc1ccc(O)cc1)NC(=O)[C@H](CCCCN)NC(=O)[C@H](CO)NC(=O)[C@H](CC(C)C)NC(=O)[C@H](CC(=O)O)NC(=O)[C@H](CO)NC(=O)[C@@H](NC(=O)[C@H](Cc1ccccc1)NC(=O)[C@@H](NC(=O)CNC(=O)[C@H](CCC(N)=O)NC(=O)C(C)(C)NC(=O)[C@@H](N)Cc1c[nH]cn1)[C@@H](C)O)[C@@H](C)O)C(=O)N[C@@H](CCC(=O)O)C(=O)N[C@@H](CO)C(=O)N[C@@H](CCCCN)C(=O)N[C@@H](C)C(=O)N[C@@H](C)C(=O)N[C@@H](CCCNC(=N)N)C(=O)N[C@@H](CCC(=O)O)C(=O)N[C@@H](Cc1ccccc1)C(=O)N[C@H](C(=O)N[C@@H](CCC(N)=O)C(=O)N[C@@H](Cc1c[nH]c2ccccc12)C(=O)N[C@@H](CC(C)C)C(=O)N[C@@H](CC(C)C)C(=O)N[C@@H](CCCCNC(=O)CC[C@H](NC(=O)CC[C@H](NC(=O)COCCOCCNC(=O)COCCOCCNC(=O)CC[C@H](NC(=O)CCCCCCCCCCCCCCCCC(=O)O)C(=O)O)C(=O)O)C(=O)O)C(=O)N[C@H](C(N)=O)[C@@H](C)O)C(C)C) | 61000 | 506 | 11.9 | 200 |
| H[Ac4c]QGTFTSDLSRYLDLRRARDFVQWLLK([γGlu-γGlu-AEEA-AEEA-γGlu-γGlu-C18 diacid])T-NH2 (N-terminus assumed; SMILES CC(C)C[C@H](NC(=O)[C@H](CC(=O)O)NC(=O)[C@H](CC(C)C)NC(=O)[C@H](Cc1ccc(O)cc1)NC(=O)[C@H](CCCNC(=N)N)NC(=O)[C@H](CO)NC(=O)[C@H](CC(C)C)NC(=O)[C@H](CC(=O)O)NC(=O)[C@H](CO)NC(=O)[C@@H](NC(=O)[C@H](Cc1ccccc1)NC(=O)[C@@H](NC(=O)CNC(=O)[C@H](CCC(N)=O)NC(=O)C1(NC(=O)[C@@H](N)Cc2c[nH]cn2)CCC1)[C@@H](C)O)[C@@H](C)O)C(=O)N[C@@H](CCCNC(=N)N)C(=O)N[C@@H](CCCNC(=N)N)C(=O)N[C@@H](C)C(=O)N[C@@H](CCCNC(=N)N)C(=O)N[C@@H](CC(=O)O)C(=O)N[C@@H](Cc1ccccc1)C(=O)N[C@H](C(=O)N[C@@H](CCC(N)=O)C(=O)N[C@@H](Cc1c[nH]c2ccccc12)C(=O)N[C@@H](CC(C)C)C(=O)N[C@@H](CC(C)C)C(=O)N[C@@H](CCCCNC(=O)CC[C@H](NC(=O)CC[C@H](NC(=O)COCCOCCNC(=O)COCCOCCNC(=O)CC[C@H](NC(=O)CC[C@H](NC(=O)CCCCCCCCCCCCCCCCC(=O)O)C(=O)O)C(=O)O)C(=O)O)C(=O)O)C(=O)N[C@H](C(N)=O)[C@@H](C)O)C(C)C) | 8500 | 16 | 21 | 1100 |
| H[Ac4c]QGTFTSDLSKYLDLRRARDFVQWLLK([γGlu-γGlu-AEEA-AEEA-γGlu-γGlu-C18 diacid])T-NH2 (N-terminus assumed; SMILES CC(C)C[C@H](NC(=O)[C@H](CC(=O)O)NC(=O)[C@H](CC(C)C)NC(=O)[C@H](Cc1ccc(O)cc1)NC(=O)[C@H](CCCCN)NC(=O)[C@H](CO)NC(=O)[C@H](CC(C)C)NC(=O)[C@H](CC(=O)O)NC(=O)[C@H](CO)NC(=O)[C@@H](NC(=O)[C@H](Cc1ccccc1)NC(=O)[C@@H](NC(=O)CNC(=O)[C@H](CCC(N)=O)NC(=O)C1(NC(=O)[C@@H](N)Cc2c[nH]cn2)CCC1)[C@@H](C)O)[C@@H](C)O)C(=O)N[C@@H](CCCNC(=N)N)C(=O)N[C@@H](CCCNC(=N)N)C(=O)N[C@@H](C)C(=O)N[C@@H](CCCNC(=N)N)C(=O)N[C@@H](CC(=O)O)C(=O)N[C@@H](Cc1ccccc1)C(=O)N[C@H](C(=O)N[C@@H](CCC(N)=O)C(=O)N[C@@H](Cc1c[nH]c2ccccc12)C(=O)N[C@@H](CC(C)C)C(=O)N[C@@H](CC(C)C)C(=O)N[C@@H](CCCCNC(=O)CC[C@H](NC(=O)CC[C@H](NC(=O)COCCOCCNC(=O)COCCOCCNC(=O)CC[C@H](NC(=O)CC[C@H](NC(=O)CCCCCCCCCCCCCCCCC(=O)O)C(=O)O)C(=O)O)C(=O)O)C(=O)O)C(=O)N[C@H](C(N)=O)[C@@H](C)O)C(C)C) | 4500 | 6 | 18 | 400 |
| H[Aib]QGTFTSDLSKYLDARRAREFVQWLLK([γGlu-γGlu-AEEA-AEEA-γGlu-C18 diacid])T-NH2 (N-terminus assumed; SMILES CC(C)C[C@H](NC(=O)[C@H](Cc1ccc(O)cc1)NC(=O)[C@H](CCCCN)NC(=O)[C@H](CO)NC(=O)[C@H](CC(C)C)NC(=O)[C@H](CC(=O)O)NC(=O)[C@H](CO)NC(=O)[C@@H](NC(=O)[C@H](Cc1ccccc1)NC(=O)[C@@H](NC(=O)CNC(=O)[C@H](CCC(N)=O)NC(=O)C(C)(C)NC(=O)[C@@H](N)Cc1c[nH]cn1)[C@@H](C)O)[C@@H](C)O)C(=O)N[C@@H](CC(=O)O)C(=O)N[C@@H](C)C(=O)N[C@@H](CCCNC(=N)N)C(=O)N[C@@H](CCCNC(=N)N)C(=O)N[C@@H](C)C(=O)N[C@@H](CCCNC(=N)N)C(=O)N[C@@H](CCC(=O)O)C(=O)N[C@@H](Cc1ccccc1)C(=O)N[C@H](C(=O)N[C@@H](CCC(N)=O)C(=O)N[C@@H](Cc1c[nH]c2ccccc12)C(=O)N[C@@H](CC(C)C)C(=O)N[C@@H](CC(C)C)C(=O)N[C@@H](CCCCNC(=O)CC[C@H](NC(=O)CC[C@H](NC(=O)COCCOCCNC(=O)COCCOCCNC(=O)CC[C@H](NC(=O)CCCCCCCCCCCCCCCCC(=O)O)C(=O)O)C(=O)O)C(=O)O)C(=O)N[C@H](C(N)=O)[C@@H](C)O)C(C)C) | 5600 | 2 | 5 | 300 |
| H[Ac4c]QGTFTSDLSKYLDLKRAREFVQWLLK([γGlu-γGlu-AEEA-AEEA-γGlu-γGlu-C18 diacid])T-NH2 (N-terminus assumed; SMILES CC(C)C[C@H](NC(=O)[C@H](CC(=O)O)NC(=O)[C@H](CC(C)C)NC(=O)[C@H](Cc1ccc(O)cc1)NC(=O)[C@H](CCCCN)NC(=O)[C@H](CO)NC(=O)[C@H](CC(C)C)NC(=O)[C@H](CC(=O)O)NC(=O)[C@H](CO)NC(=O)[C@@H](NC(=O)[C@H](Cc1ccccc1)NC(=O)[C@@H](NC(=O)CNC(=O)[C@H](CCC(N)=O)NC(=O)C1(NC(=O)[C@@H](N)Cc2c[nH]cn2)CCC1)[C@@H](C)O)[C@@H](C)O)C(=O)N[C@@H](CCCCN)C(=O)N[C@@H](CCCNC(=N)N)C(=O)N[C@@H](C)C(=O)N[C@@H](CCCNC(=N)N)C(=O)N[C@@H](CCC(=O)O)C(=O)N[C@@H](Cc1ccccc1)C(=O)N[C@H](C(=O)N[C@@H](CCC(N)=O)C(=O)N[C@@H](Cc1c[nH]c2ccccc12)C(=O)N[C@@H](CC(C)C)C(=O)N[C@@H](CC(C)C)C(=O)N[C@@H](CCCCNC(=O)CC[C@H](NC(=O)CC[C@H](NC(=O)COCCOCCNC(=O)COCCOCCNC(=O)CC[C@H](NC(=O)CC[C@H](NC(=O)CCCCCCCCCCCCCCCCC(=O)O)C(=O)O)C(=O)O)C(=O)O)C(=O)O)C(=O)N[C@H](C(N)=O)[C@@H](C)O)C(C)C) | 1500 | 5 | 17 | 200 |
| H[Ac4c]QGTFTSDLSRYLESRRAREFVQWLLK([γGlu-γGlu-AEEA-AEEA-γGlu-γGlu-C18 diacid])T-NH2 (N-terminus assumed; SMILES CC(C)C[C@H](NC(=O)[C@H](Cc1ccc(O)cc1)NC(=O)[C@H](CCCNC(=N)N)NC(=O)[C@H](CO)NC(=O)[C@H](CC(C)C)NC(=O)[C@H](CC(=O)O)NC(=O)[C@H](CO)NC(=O)[C@@H](NC(=O)[C@H](Cc1ccccc1)NC(=O)[C@@H](NC(=O)CNC(=O)[C@H](CCC(N)=O)NC(=O)C1(NC(=O)[C@@H](N)Cc2c[nH]cn2)CCC1)[C@@H](C)O)[C@@H](C)O)C(=O)N[C@@H](CCC(=O)O)C(=O)N[C@@H](CO)C(=O)N[C@@H](CCCNC(=N)N)C(=O)N[C@@H](CCCNC(=N)N)C(=O)N[C@@H](C)C(=O)N[C@@H](CCCNC(=N)N)C(=O)N[C@@H](CCC(=O)O)C(=O)N[C@@H](Cc1ccccc1)C(=O)N[C@H](C(=O)N[C@@H](CCC(N)=O)C(=O)N[C@@H](Cc1c[nH]c2ccccc12)C(=O)N[C@@H](CC(C)C)C(=O)N[C@@H](CC(C)C)C(=O)N[C@@H](CCCCNC(=O)CC[C@H](NC(=O)CC[C@H](NC(=O)COCCOCCNC(=O)COCCOCCNC(=O)CC[C@H](NC(=O)CC[C@H](NC(=O)CCCCCCCCCCCCCCCCC(=O)O)C(=O)O)C(=O)O)C(=O)O)C(=O)O)C(=O)N[C@H](C(N)=O)[C@@H](C)O)C(C)C) | 1400 | 17 | 4 | 200 |
